Experimental data taken from US12404345B2, “Humanized antibodies against iRHOM2” (SCIRHOM GMBH, priority 2021, dated 2025).
Where a chain is given by its changes, count along the chain named.

B1: 16-B-03: humanized antibody binding human iRhom2; HCVD SEQ ID NO 1, LCVD SEQ ID NO 5 (antibody, V domains shown)
VH: QVTLRESGPALVKPTQTLTLTCTFSGFSLSTFALGVGWIRQPPGKALEWLAHIWWDDDKYYNPALKSRLTISKDTSKNQVVLTITNMDPVDTATYYCARITTYYYGMDYWGQGTLVTVSS
VL: EIVMTQSPDFQSVTPKEKVTITCRASQSIGNHLHWYQQKPDASPKLLIKYASQSISGVPSRFSGSGSGTDFTLTINSLEAEDAATYFCQQSYQWPLTFGQGTKLEIK
modifications: antibody sequences
B2: 16-B-05: humanized antibody binding human iRhom2; HCVD SEQ ID NO 9, LCVD SEQ ID NO 13 (antibody, V domains shown)
VH: B1 VH with D57E
VL: B1 VL with Q93N
modifications: antibody sequences
B3: 16-B-07: humanized antibody binding human iRhom2; HCVD SEQ ID NO 17, LCVD SEQ ID NO 21 (antibody, V domains shown)
VH: B1 VH with D57E
VL: B1 VL
modifications: antibody sequences
B4: 23-B-04: humanized antibody binding human iRhom2; HCVD SEQ ID NO 25, LCVD SEQ ID NO 29 (antibody, V domains shown)
VH: QVTLRESGPALVKPTQTLTLTCTFSGFSLSTFGMGVGWIRQPPGKALEWLAHIWWDDEKYYNSALKSRLTISKDTSKNQVVLTITNMDPVDTATYYCARISNYGSNYWYFNVWGQGTLVTVSS
VL: AIQLTQSPSSLSASVGDRVTITCRASSSVSYMYWYQQKPGKAPKVLIYDTSNLASGVPSRFSGSGSGTDYTLTISSLQPEDFATYYCQQWNAYPLTFGQGTKLEIK
modifications: antibody sequences
B5: 42-B-02: humanized antibody binding human iRhom2; HCVD SEQ ID NO 33, LCVD SEQ ID NO 37 (antibody, V domains shown)
VH: B4 VH with M34R, S101Q, N111D
VL: B4 VL with S28R, V29I, Y33F, A92S
modifications: antibody sequences
B6: 42-B-04: humanized antibody binding human iRhom2; HCVD SEQ ID NO 41, LCVD SEQ ID NO 45 (antibody, V domains shown)
VH: B4 VH with M34R, S101Q, N111D
VL: B4 VL with S28R, V29I, Y33F
modifications: antibody sequences

These molecules were tested on cynomolgus monkey iRhom2 (assay: FACS cross-reactivity on MEF-DKO-Cyno-iR2-FL-WT-T7 cells). Details: antibody at 3 μg/ml.
Assay type: binding
From the text: (§1) Next, iRhom1/2−/− DKO MEFs stably expressing a tagged form of rhesus monkey, cynomolgus monkey, dog or rabbit iRhom2 were generated in order to determine cross-reactivity of the antibodies of the invention with the respective orthologue of iRhom2. iRhom1/2−/− DKO MEFs stably expressing a tagged form of rhesus monkey, cynomolgus monkey, dog or rabbit iRhom1 were generated to confirm specificity for iRhom2 versus iRhom1 of these species.
(§2) In brief, on day 1, Phoenix-ECO cells (American Type Culture Collection, USA) were seeded on 6-well tissue culture plates (Greiner, Germany) in standard growth medium at 8×10^5 cells per well and kept overnight at 37° C., 5% CO2. On day 2, the medium was replaced by fresh medium supplemented with chloroquine (Sigma-Aldrich, USA) at a final concentration of 25 μM. Applying the calcium phosphate method, cells were transfected with 2 μg/ml of pMSCV (Clontech, USA) empty vector, pMSCV-rhesus-iR2-FL-WT-T7 encoding rhesus monkey iRhom2 full length wild type C-terminally tagged with 3 consecutive copies of the T7 epitope, pMSCV-cyno-iR2-FL-WT-T7 encoding cynomolgus monkey iRhom2 full length wild type C-terminally tagged with 3 consecutive copies of the T7 epitope, pMSCV-dog-iR2-FL-WT-T7 encoding dog iRhom2 full length wild type C-terminally tagged with 3 consecutive copies of the T7 epitope or pMSCV-rabbit-iR2-FL-WT-T7 encoding rabbit iRhom2 full length wild type C-terminally tagged with 3 consecutive copies of the T7 epitope, respectively, and were kept at 37° C., 5% CO2. After 7 hours, the transfections were stopped by replacing cell supernatants with standard growth medium lacking chloroquine, and cells were incubated at 37° C., 5% CO2 to allow virus production overnight. In parallel, immortalized iRhom1/2−/− DKO MEFs as target cells for retroviral infection were seeded on 6-well tissue culture plates (Greiner, Germany) in standard growth medium at 1×10^5 cells per well and were also kept overnight at 37° C., 5% CO2. On day 3, the supernatants of Phoenix-ECO cells releasing pMSCV, pMSCV-rhesus-iR2-FL-WT-T7, pMSCV-cyno-iR2-FL-WT-T7, pMSCV-dog-iR2-FL-WT-T7 or pMSCV-rabbit-iR2-FL-WT-T7 ecotrophic virus, respectively were collected, filtered with 0.45 μm CA filters, and supplemented with 4 μg/ml of polybrene (Sigma-Aldrich, USA). Upon removal of medium from the immortalized iRhom1/2−/− DKO MEFs, the virus containing supernatants were added to the target cells for 4 hours at 37° C., 5% CO2 for first infection. Simultaneously, Phoenix-ECO cells were re-incubated with fresh medium, which, after another 4 hours, was filtered and used for the second infection of the respective target cell populations, again in the presence of 4 μg/ml of polybrene. Likewise, a third, but overnight infection cycle was performed. On day 4, virus containing cell supernatants were replaced by fresh standard growth medium. From day 5 onwards, cells were grown in the presence of 2 mg/ml of geneticin (G418, Thermo Fisher Scientific, USA) for the selection of immortalized MEF-DKO-EV control cells stably infected with pMSCV empty vector, pMSCV-rhesus-iR2-FL-WT-T7 cells stably expressing rhesus monkey iRhom2 full length wild type C-terminally tagged with 3 consecutive copies of the T7 epitope, pMSCV-cyno-iR2-FL-WT-T7 cells stably expressing cynomolgus monkey iRhom2 full length wild type C-terminally tagged with 3 consecutive copies of the T7 epitope, pMSCV-dog-iR2-FL-WT-T7 cells stably expressing dog iRhom2 full length wild type C-terminally tagged with 3 consecutive copies of the T7 epitope or pMSCV-rabbit-iR2-FL-WT-T7 cells stably expressing rabbit iRhom2 full length wild type C-terminally tagged with 3 consecutive copies of the T7 epitope, respectively. Upon propagation, cells were stocked for future usage. In parallel, iRhom1/2−/− DKO MEFs stably expressing a tagged form of rhesus monkey, cynomolgus monkey, dog or rabbit iRhom1 were generated in an analogous manner. […]

| Molecule | binding to cynomolgus monkey iRhom2 on MEF-DKO-Cyno-iR2-FL-WT-T7 cells |
| --- | --- |
| B1 | Strong binding |
| B2 | recognize cynomolgus monkey iRhom2 |
| B3 | recognize cynomolgus monkey iRhom2 |
| B4 | recognize cynomolgus monkey iRhom2 |
| B5 | recognize cynomolgus monkey iRhom2 |
| B6 | recognize cynomolgus monkey iRhom2 |

Each molecule was assayed on dog iRhom1 (assay: FACS binding on MEF-DKO-Dog-iR1-FL-WT-T7 cells). Details: antibody at 3 μg/ml.
From the text: as §1, §2

| Molecule | binding to dog iRhom1 on MEF-DKO-Dog-iR1-FL-WT-T7 cells |
| --- | --- |
| B1 | no significant binding |
| B2 | do not recognize dog iRhom1 |
| B3 | do not recognize dog iRhom1 |
| B4 | do not recognize dog iRhom1 |
| B5 | do not recognize dog iRhom1 |
| B6 | do not recognize dog iRhom1 |
